Test results: patent US6723838 (Johns Hopkins, dated 2004)

T1: SYNGAP deletion mutant 894 to 1134 (-QTR*) (rat, UniProt Q9QUH6 1067-1307)
T1 construct: PCR generated deletion mutant, ends in -QTR; not shown: The GAL4 two-hybrid fusion domain and its junction residues
T1 sequence: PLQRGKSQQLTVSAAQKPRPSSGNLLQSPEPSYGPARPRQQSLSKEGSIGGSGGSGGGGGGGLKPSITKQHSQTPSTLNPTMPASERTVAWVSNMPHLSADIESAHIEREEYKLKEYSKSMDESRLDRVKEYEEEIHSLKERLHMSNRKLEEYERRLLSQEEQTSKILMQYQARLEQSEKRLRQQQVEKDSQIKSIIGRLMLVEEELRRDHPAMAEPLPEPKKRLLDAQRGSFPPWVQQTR

T2: SYNGAP deletion mutant 894 to 1132 (-Q*) (rat, UniProt Q9QUH6 1067-1305)
T2 construct: PCR generated deletion mutant, ends in -Q; not shown: The GAL4 two-hybrid fusion domain and its junction residues
T2 sequence: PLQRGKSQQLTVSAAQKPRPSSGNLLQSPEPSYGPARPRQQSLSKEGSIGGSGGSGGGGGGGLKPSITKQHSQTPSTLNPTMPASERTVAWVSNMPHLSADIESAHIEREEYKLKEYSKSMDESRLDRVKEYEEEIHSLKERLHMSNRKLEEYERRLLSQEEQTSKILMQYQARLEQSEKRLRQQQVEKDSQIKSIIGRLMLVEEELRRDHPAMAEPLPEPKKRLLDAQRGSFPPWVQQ

T3: SYNGAP of rat brain (endogenous) (rat, UniProt Q9QUH6 174-1308, limits assumed)
T3 construct: Native protein in brain homogenates, deoxycholate extracts of brain membranes and cultured hippocampal neurons; runs as a doublet or triplet, so the isoform is not certain; also called 130 kDa protein in brain; doublet or triplet of proteins at 130 kDa
T3 sequence: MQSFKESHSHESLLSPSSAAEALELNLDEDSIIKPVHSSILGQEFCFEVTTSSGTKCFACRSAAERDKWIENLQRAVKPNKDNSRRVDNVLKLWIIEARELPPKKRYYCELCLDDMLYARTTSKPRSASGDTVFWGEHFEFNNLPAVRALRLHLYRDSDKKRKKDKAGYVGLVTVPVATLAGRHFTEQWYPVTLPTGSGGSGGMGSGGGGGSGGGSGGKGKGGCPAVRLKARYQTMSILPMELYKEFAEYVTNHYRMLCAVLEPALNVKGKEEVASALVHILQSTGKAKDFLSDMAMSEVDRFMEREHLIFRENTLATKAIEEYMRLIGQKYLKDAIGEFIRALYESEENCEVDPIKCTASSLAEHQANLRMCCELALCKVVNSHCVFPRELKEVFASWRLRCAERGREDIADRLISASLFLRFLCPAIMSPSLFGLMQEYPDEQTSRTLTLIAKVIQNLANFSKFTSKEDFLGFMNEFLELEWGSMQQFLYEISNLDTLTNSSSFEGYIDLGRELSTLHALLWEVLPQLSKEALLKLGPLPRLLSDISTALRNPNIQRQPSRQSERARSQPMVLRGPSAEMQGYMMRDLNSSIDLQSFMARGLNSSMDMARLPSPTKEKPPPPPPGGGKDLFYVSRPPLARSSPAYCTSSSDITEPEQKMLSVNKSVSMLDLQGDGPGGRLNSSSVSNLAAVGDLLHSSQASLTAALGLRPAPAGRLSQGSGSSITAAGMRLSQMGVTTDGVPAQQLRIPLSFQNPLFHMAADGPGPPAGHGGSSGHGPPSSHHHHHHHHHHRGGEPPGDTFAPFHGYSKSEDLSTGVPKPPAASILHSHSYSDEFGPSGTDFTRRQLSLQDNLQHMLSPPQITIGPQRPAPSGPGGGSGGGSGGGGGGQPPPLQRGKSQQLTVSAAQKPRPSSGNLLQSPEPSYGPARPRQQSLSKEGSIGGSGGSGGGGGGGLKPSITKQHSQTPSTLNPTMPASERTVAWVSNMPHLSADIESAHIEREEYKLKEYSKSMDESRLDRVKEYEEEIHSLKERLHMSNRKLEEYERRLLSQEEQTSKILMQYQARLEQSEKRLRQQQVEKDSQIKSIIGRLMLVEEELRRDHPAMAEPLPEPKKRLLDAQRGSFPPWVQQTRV


What was measured:
[1] = molecular target: T1, SYNGAP deletion mutant 894 to 1134 …; test: yeast two-hybrid, HIS3 growth without leucine, tryptophan and histidine in 100 mM 3-aminotriazole
Description: (§1) The PDZ domains of PSD-95/SAP90 and SAP102 were amplified by PCR and subcloned into the yeast vector, pPC 86. PDZ domain 1 of PSD-95 covers the amino acids from 40 to 160; PDZ domain 2, from 156 to 248; and PDZ domain 3, from 298 to 403. See e.g., Cho et al., (1992) Neuron 9:929 for disclosure relating to the PSD-95 sequence.

[2] = molecular target: T2, SYNGAP deletion mutant 894 to 1132 (-Q*); test: as above
Description: as §1

[3] = molecular target: T3, SYNGAP of rat brain (endogenous); test: coimmunoprecipitation from deoxycholate solubilized rat brain membranes, immunoblot
Description: Cortex and hippocampus from a male Sprague-Dawley rat, age of 4 to 6 weeks were homogenized twice using a glass-Teflon homogenizer with protease inhibitors (antipain, chymotrypsin, leupeptin, Trasylol, 0.1 mM PMSF). After determining the protein concentration of the P2 fraction by a Coomasie assay (Pierce), aliquots of the proteins at 3 mg/ml were stored at −80° C. until use. For coimmunoprecipitation, PA (300 μg per IP) was solubilized by 1.0% sodium deoxycholate followed by 0.1% Triton X-100 and the preparation was centrifuged for 10 minutes at 100,000×g. The supernatant was then used for coimmunoprecipitation.
The clarified supernatant of solubilized P2 fraction was then added to the sepharose beads and the mixture incubated for 2 to 3 hours at 4° C. […] When the antibodies were blocked with antigens, they were preincubated with the peptide at concentration of 100 µg/ml or fusion proteins at concentration of 50 µg/ml.

binding result [2] | binding result [3] | Binder | binding result [1]
no binding | – | SAP102 PDZ 3 subcloned into yeast vector pPC 86 (other, UniProt Q62936 404-484, looked up, not shown: large carriers, domain: PDZ 3; Limits of the pPC86 construct are not restated; the bait construct of the same domain covers 367 to 452; also called third PDZ domain of SAP102) KIILHKGSTGLGFNIVGGEDGEGIFVSFILAGGPADLSGELRRGDRILSVNGVNLRNATHEQAAAALKRAGQSVTIVAQYR | no binding
– | no binding | GluR1 subunit of rat brain (endogenous) (receptor, UniProt P19490 19-907, looked up, also called NMDA receptor GluR1 subunit (so in the source)) ANFPNNIQIGGLFPNQQSQEHAAFRFALSQLTEPPKLLPQIDIVNISDSFEMTYRFCSQFSKGVYAIFGFYERRTVNMLTSFCGALHVCFITPSFPVDTSNQFVLQLRPELQEALISIIDHYKWQTFVYIYDADRGLSVLQRVLDTAAEKNWQVTAVNILTTTEEGYRMLFQDLEKKKERLVVVDCESERLNAILGQIVKLEKNGIGYHYILANLGFMDIDLNKFKESGANVTGFQLVNYTDTIPARIMQQWRTSDSRDHTRVDWKRPKYTSALTYDGVKVMAEAFQSLRRQRIDISRRGNAGDCLANPAVPWGQGIDIQRALQQVRFEGLTGNVQFNEKGRRTNYTLHVIEMKHDGIRKIGYWNEDDKFVPAATDAQAGGDNSSVQNRTYIVTTILEDPYVMLKKNANQFEGNDRYEGYCVELAAEIAKHVGYSYRLEIVSDGKYGARDPDTKAWNGMVGELVYGRADVAVAPLTITLVREEVIDFSKPFMSLGISIMIKKPQKSKPGVFSFLDPLAYEIWMCIVFAYIGVSVVLFLVSRFSPYEWHSEEFEEGRDQTTSDQSNEFGIFNSLWFSLGAFMQQGCDISPRSLSGRIVGGVWWFFTLIIISSYTANLAAFLTVERMVSPIESAEDLAKQTEIAYGTLEAGSTKEFFRRSKIAVFEKMWTYMKSAEPSVFVRTTEEGMIRVRKSKGKYAYLLESTMNEYIEQRKPCDTMKVGGNLDSKGYGIATPKGSALRNPVNLAVLKLNEQGLLDKLKNKWWYDKGECGSGGGDSKDKTSALSLSNVAGVFYILIGGLGLAMLVALIEFCYKSRSESKRMKGFCLIPQQSINEAIRTSTLPRNSGAGASGGGGSGENGRVVSQDFPKSMQSIPCMSHSSGMPLGATGL | –
